The text below walks through data of US20250002610A1 (Genmab, published 2025).

Test [1] has as its target T1, human FAPα (Fibroblast activation protein alpha), cell surface expressed (human, UniProt Q12884 1-760).
T1 construct: Endogenous on human lung fibroblasts and CAFs
T1 sequence: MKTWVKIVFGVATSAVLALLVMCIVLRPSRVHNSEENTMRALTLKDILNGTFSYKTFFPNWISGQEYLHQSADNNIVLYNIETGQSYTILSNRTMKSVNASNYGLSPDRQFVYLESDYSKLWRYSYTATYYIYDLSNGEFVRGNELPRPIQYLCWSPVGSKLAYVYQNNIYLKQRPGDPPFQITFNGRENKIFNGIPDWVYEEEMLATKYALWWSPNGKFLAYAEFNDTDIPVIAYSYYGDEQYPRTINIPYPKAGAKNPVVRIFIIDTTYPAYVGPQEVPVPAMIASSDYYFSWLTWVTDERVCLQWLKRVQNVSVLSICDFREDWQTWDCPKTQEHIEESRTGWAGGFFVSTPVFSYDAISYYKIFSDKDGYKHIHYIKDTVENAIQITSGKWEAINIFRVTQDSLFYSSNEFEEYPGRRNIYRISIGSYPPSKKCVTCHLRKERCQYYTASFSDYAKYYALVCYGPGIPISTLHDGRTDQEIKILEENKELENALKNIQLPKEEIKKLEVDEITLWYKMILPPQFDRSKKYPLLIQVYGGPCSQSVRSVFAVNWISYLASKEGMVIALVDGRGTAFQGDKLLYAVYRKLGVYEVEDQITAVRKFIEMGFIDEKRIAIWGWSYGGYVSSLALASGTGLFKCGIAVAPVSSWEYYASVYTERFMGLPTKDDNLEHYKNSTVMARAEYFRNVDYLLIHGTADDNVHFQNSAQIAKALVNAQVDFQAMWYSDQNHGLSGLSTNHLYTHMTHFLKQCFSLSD
The test can be described thus: flow cytometry, human lung fibroblasts, n = 2. Here is the method: Human lung fibroblasts and CAFs (50,000 cells/well) were seeded in 96-Well round bottom plates (Greiner Bio-one, Cat #650101). Antibody dilutions were prepared using fluorescence-activated cell sorting (FACS) buffer, consisting of phosphate buffer saline (PBS, Lonza, Cat #BE17-517Q)+1% Bovine Serum Albumin (BSA, Roche, Cat #10735086001)+0.02% Sodium Azide (Bio-World, Cat #41920044-3). Plates were centrifuged, supernatant was removed, cells were resuspended in 50 μL of human Fc Block (BD, Cat #564220, diluted 1:100 in FACS buffer) and 50 μL of viability stain TO-PRO-3 Iodide (Thermo Fisher, Cat #T3605, diluted 1: 25,000 in FACS buffer), and incubated for 15 min at 4° C. Plates were washed three times with FACS buffer. Plates were centrifuged, supernatant was removed, cells were resuspended in 50 μL of antibody dilutions (concentration range 90-0.0005 μg/mL, three-fold dilution steps using FACS buffer) of BisG1-FAPα-FERL/DR4-FERR, BisG1-FAPα-FERL/b12-FERR, BisG1-b12-FERL/b12-FERR (top six concentrations only for CAFs culture) or IgG1-FAPα-FERL (top four concentrations only for CAFs culture) and incubated for 30 min at 4° C. Cells were washed three times with FACS buffer and resuspended in 50 μL of Fluorescein isothiocyanate (FITC)-labeled polyclonal antibody goat anti-mouse IgG1 (Jackson Immuno Research, Cat #109-096-097, diluted 1:100 in FACS buffer). […] Antibody binding to viable cells (TO-PRO-3 negative) was analyzed by flow cytometry on a FACSCelesta™ (BD biosciences) and data were processed using FlowJo_v10.8.1 (FlowJo LLC). Geomean fluorescence intensity, gMFI, was determined and visualized using GraphPad Prism. Binding curves were analyzed using nonlinear regression analysis. […]
(§1) Binding of FAPα-targeting monoclonal antibody clones, IgG1-FAPα-FEAL and IgG1-FAP5-FEAL, and bispecific antibodies carrying a binding arm derived from the two FAPα-binding clones (BisG1-FAPα-FEAL/b12-FEAR and BisG1-FAP5-FEAL/b12-FEAR) to human lung fibroblasts, which endogenously express FAPα, was compared and analyzed by flow cytometry.
For orientation: Flow cytometry measures light scatter and fluorescence of single cells or particles in a stream.

Test [2] addresses T1, human FAPα (Fibroblast activation …). Briefly: flow cytometry, human lung fibroblasts, n = 1. Here is the method:
Human lung fibroblasts and CAFs (50,000 cells/well) were seeded in 96-Well round bottom plates (Greiner Bio-one, Cat #650101). Antibody dilutions were prepared using fluorescence-activated cell sorting (FACS) buffer, consisting of phosphate buffer saline (PBS, Lonza, Cat #BE17-517Q)+1% Bovine Serum Albumin (BSA, Roche, Cat #10735086001)+0.02% Sodium Azide (Bio-World, Cat #41920044-3). Plates were centrifuged, supernatant was removed, cells were resuspended in 50 μL of human Fc Block (BD, Cat #564220, diluted 1:100 in FACS buffer) and 50 μL of viability stain TO-PRO-3 Iodide (Thermo Fisher, Cat #T3605, diluted 1: 25,000 in FACS buffer), and incubated for 15 min at 4° C. Plates were washed three times with FACS buffer. Plates were centrifuged, supernatant was removed, cells were resuspended in 50 μL of antibody dilutions (concentration range 90-0.0005 μg/mL, three-fold dilution steps using FACS buffer) of BisG1-FAPα-FERL/DR4-FERR, BisG1-FAPα-FERL/b12-FERR, BisG1-b12-FERL/b12-FERR (top six concentrations only for CAFs culture) or IgG1-FAPα-FERL (top four concentrations only for CAFs culture) and incubated for 30 min at 4° C. Cells were washed three times with FACS buffer and resuspended in 50 μL of Fluorescein isothiocyanate (FITC)-labeled polyclonal antibody goat anti-mouse IgG1 (Jackson Immuno Research, Cat #109-096-097, diluted 1:100 in FACS buffer). After 30 min incubation at 4° C., cells were washed twice with FACS buffer and resuspended in FACS buffer. Antibody binding to viable cells (TO-PRO-3 negative) was analyzed by flow cytometry on a FACSCelesta™ (BD biosciences) and data were processed using FlowJo_v10.8.1 (FlowJo LLC). Geomean fluorescence intensity, gMFI, was determined and visualized using GraphPad Prism. Binding curves were analyzed using nonlinear regression analysis. The concentration (pg/mL) at which 50% of the maximal effect was observed (EC₅₀) was derived from the fitted curves.
as §1

B1: IgG1-FAP5-FEAL (antibody)
heavy: QVQLQQSGAELARPGASVNLSCLASGYTFTNNGINWLKQRTGQGLEWIGEIYPRSTNTLYNEKFKGKATLTADRSSNTAYMELRSLTSEDSAVYFCARTLTAPFAFWGQGTLVTVSSASTKGPSVFPLAPSSKSTSGGTAALGCLVKDYFPEPVTVSWNSGALTSGVHTFPAVLQSSGLYSLSSVVTVPSSSLGTQTYICNVNHKPSNTKVDKRVEPKSCDKTHTCPPCPAPEFEGGPSVFLFPPKPKDTLMISRTPEVTCVVVAVSHEDPEVKFNWYVDGVEVHNAKTKPREEQYNSTYRVVSVLTVLHQDWLNGKEYKCKVSNKALPAPIEKTISKAKGQPREPQVYTLPPSREEMTKNQVSLTCLVKGFYPSDIAVEWESNGQPENNYKTTPPVLDSDGSFLLYSKLTVDKSRWQQGNVFSCSVMHEALHNHYTQKSLSLSPG
light: QIVLTQSPAIMSASPGELVTMTCSASSGVNFMHWYQQLSGTSPKRWIFDTSKLASGVPARFSGSGSGTSYSLTISSMEAEDAATYYCQQWSFNPPTFGGGTKLEIKRTVAAPSVFIFPPSDEQLKSGTASVVCLLNNFYPREAKVQWKVDNALQSGNSQESVTEQDSKDSTYSLSSTLTLSKADYEKHKVYACEVTHQGLSSPVTKSFNRGEC
notes: Prior art clone FAP5 (US20090304718A1) with FEAL constant region
Turning to B1, the figures for the EC50 in test [1] and in test [2] were 0.2 µg/mL and 0.15 µg/mL, respectively.

Broadly, the EC50 is the concentration giving half of the maximal effect.
